Laboratory results reported in the nanobody polyreactivity screen of Harvey et al. (2022).

Experiment: yeast display, Sf9 membrane polyspecificity reagent, FACS + sequencing; frameworks hold sequencing errors
How it was run: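 Using colony PCR, genes from sorted yeast display clones were amplified, then sequenced on MiSeq at 2 × 250 and filtered by CDR length. The clones had been stained with 10% biotinylated, detergent-solubilized Sf9 membrane reagent for 1 hour at 4 °C and sorted by FACS into low and high (top ~1%) gates on anti-HA and streptavidin fluorescence. Polyreactivity labels come from the gate of origin.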

Sequence	polyreactivity (PSR sort gate)
QVQLVESGGGIVQSGGSLRLSCAASGSIFQPYAMGWYRQAPGQEREFVAAISRSGGITYYADSVKGRFTISRDNAKNTVYLQMYSLKPEDTAVYYCATGRQVVRSYSEGDYWGQGTQVTLSS	low polyreactivity
QVQLVESGGGLVQAGGSLRLSCAASGRTFRAYAMGWYRQAPGKERELVAGITSGGSTNYADSVKGRFTISRDNAKNTVYLQMNSLKPEDTAVYYCAARRGTYRYRYDYWGQGTQVTVSS	high polyreactivity
QVQLVESGGGLVQAGGSLRLSCAASGRIFTLYAMGWYRQAPGTERELVAAITYTGANTYYADSVKGRFTISRDNAKNTVYLQMNSLKPEDTAVYYCAASGYYYDYWGQGTQVTVSS	high polyreactivity
QVQLVESGGGLVQAGGSLRLSSAASGFTFVSYAMGWYRQAPGKERELVASISKRGGTTYYADSVKGRFTISRDNAKKTVFLQMNSLKPDDTAVYYCNARDTRRYVTYDSGYDYWGQGTQVTVSS	high polyreactivity
QVQLVESGGGLVQAGGSLRLSCAASGSTFWYNAMGWYRQAPGKERELVAAITQSGTRTYYADSVKGRFTISRDNAKNTVFLQMNSLKPEDTAVYYCAAGNAPYYRYGSKKYGYWGQGTQVTVSS	high polyreactivity
QVQLVESGGGLVQAGGSLRLSCAASGRTFRWNAMGWYRQAPGKERELVAAISSGGSTYYADSVKGRFTISRDNAKNTVYLQMNSLKPEDTAVYYCAKSSFKYRWSYPVISMDYWGQGTQVTVSS	high polyreactivity
QVQLVESGGGLVQAGGSLRLSCAASGGTFGYNAMGWYRQAPGKERELVAAIRNCGSTYYADSVKGRFTISRDNAKNTVYLQMNSLKQEDTAVYYCAAKVYRKLNYWVQGTQVTVSS	high polyreactivity
QVQLVESVGGLVQAGGSLRLSCAASGFTFTPYGMGWYRQAPGKERELVAAITWNGGRTYYADSVKGRFTISRDNAKNTVYLQMNSLKPEDTAVYYCAAVAWSWQKRGYWGQGTQVTVSS	high polyreactivity
QVQLVESGGGLVQAGGSLRLSCAASGRIFAYNAMGWYRQAPGKERELVAAISSGGNTYYADSVKGRFTISRDNAKNTVYLQMNSLKPEDTAVYYCNAGVGWHRYYSNYDFWGQGTQVTVSS	low polyreactivity
QVQLVESGGGLVQAGGRLRLSCAASGSTFVTNYMGRYRQAPGKERELVAAISSGTSTNYADSVKGRFTISRDNAKNTVYLQMNSLTREDTPVYYCAADSLKRYDYWGQGTQVTVSS	low polyreactivity
QVQLLESGGGLVQAGGSLRLSCAASVSIFPKNTMGWYIQAPGKERELVAAISKSGGSTYYADSVKGRFTISRDNAKNTVYLQMNSLKPEDTAVYYCAAALGLRSTSWGRRGGGGDYWGQGTQVTGSS	high polyreactivity
QVQLVESGGGLVQAGGSLRLSCAASGRTFGLYAMGWYRPAPGKERELVADINGSGTRTYYADSVKGRFTISRDYAKNTVYLQMNSLKPEDTAVYYCYGRYHWLYYWGQGTQVTVSS	high polyreactivity
QVQLVESGGGLVQAGGSLRLSCAASGRTFRFYAMGWYRPAPGKERELVAGITRSGGGTYYADSVKGRFTISRDNAKNTVYLQMNSLKPEDTAVYYCAATHAYLGYGYWGQGTQVTVSS	high polyreactivity
QVQLVESGGGLVQAGGSLRLSCAASGRTFYSNVMGWYIQAPGQERELVASISRGGNTYYADSVKGRFTISRDNAKIPFYLQMNSLKPEDTAVYYCAARQYHSRDFDYWGQGTQVTVSS	low polyreactivity
QVQLVESGGGLVQAGGSLRLSCAASGSIIRINAMGWYRQAPGKERELVAAISTRSGRTYYADSVKGRFTISRDNAKNTVYLQLNSLKPEDTAFYYCARYRTQASGYGGYHYWGQGTQVTVSS	high polyreactivity
QVQLVESGGGLVQAGGSIRLSCAASGSTFAKNAMGWYRQAPGKERELVAAISRGGNTYYADSGKGRFTISRDNAKNTVYLQMNSLKPEDTAVYYCSKLPFTRTYLGSLYDYWGQGTQVTVSS	high polyreactivity
QVQLVESGGGLVQAGGSLRLSCAASGSIFRGYAMGWYRQAPEKERELVAAISRRGGSTYYADSVKGRFTISRDNAKNTVYLQMNSLKPEDTAVYYCAKDGTGAGTYDYWGQGTQVTVSS	low polyreactivity
QVQLVESGGGLVQAGGSLRLSCAASGFIFIKYAMRCYRQAPGKERELVAAISFRGGRTNYADSVKGRFTISRDNAKNTVYLQMNSLKPEDTAVYYCAAETRDYSEGYYWGQGTQVTVSS	high polyreactivity
HVQLVESGGGLVQAGGSLRLSCAASGLTFQYNAMGWYRQAPGKERELVATISQSGGSTYYADSVKGRFTISRDNAKNTVYLQMNSLKPEDTAVYYCAAYRAWTWRIRYDYWGQGTQVTVSS	low polyreactivity
QVQLVESGGGLVQAGGSLRLSCAASGSTFPSYAMGWYRQAPGKERELVAAISRSGGSTYYADSVKGRFTISRDNAKNTVYLQMNSLKPEDTAVYYCAARGHLRYESDYWGQGTQVTVSS	high polyreactivity
QVQLVESGGGLVQAGGSLRLSCAASGRTFQFYVMGWYRQAPGKERELLASIRSGGSTNYADSVKGRFTISRDNAKNTVYLQMNSLKPEDTAVYYCNADAYGTPEFTSYAVRYDYWGQGTQVTVSS	low polyreactivity
QVQLVESGGGLVQAGGSLRLSCAASGRTLYNYAMGWYRQAPGKERELVAAISSSGSTNYADSVKVRFTISRDNAKNTVYLQMNSLKPEDTAVYYCAKGYPWRYSIMDYWGQGTQVTVSS	low polyreactivity

Sequence	polyreactivity (PSR sort gate)
QVQLVESGGGLVQAGGSLRLSCAASGFTFYLYTMGWYRQAPGKERELVAAISWRGGGTYYADSVKGRFTISRDNAKNTVYLQMNSLKPEDTAVYYCATVRTYARNDYWGQGTQVTVSS	high polyreactivity
QVQLVESGGGLVQAGGSLRLSCAASGSIFGRYAMGWYRQARGKERELVAAISWSGGSTYYADSVKGRFTISRDNAKNTVYLQMNSLKPEDTAVYYCAANYKYAYEYWGQGTQVTVSS	high polyreactivity
QVQLEESGGGLVQAGGSLRLSCAASGSTFYKYAMGWSRQAPGKERELVASITWSGTSTYYADSVKGRFTISRDNAKNTVYLQMNSLKPEDTAVYYCNAGLEYYYWGYTWEFDYWGQGTQVTVSS	low polyreactivity
QVQLVESGGGLVQAGGSLRLSCAASGSIFSYYAMGWYRQAPGKERELVAAITVRGGSTYYADSVKGRFTISRDNAKNTVYLQMNSLKPEDTAVYYCAADWLDESFSYGPYYYWGQGTQVTVSS	low polyreactivity
QVQLVESGGGLVQAGGSLRLSCAASGSTFGSYAMGWYIQAPGKERELVAAINWSGGITYYADSVKGRFTISRDNAKNTVYLQMNSLKPEDTAVYYCAADTRTYYYGSTYDYEYWGQGTQVTVSS	low polyreactivity
QVQLVESGGGLVQAGGSLRLSCDASGNTYLNALGWYRQAPGKERELVAAISKGGADTYYADSVKGRFTISRDNAKNTVYLQMNSLKPEDTAVYYCAADGYADGWWVEYPWTYDYWGQGTQVTVSS	low polyreactivity
QVQLVESGGGLVQAGGSLRLSCAASGRIFGVYAMGWYRPAPGKERELVAGINGGDSTYYADSVKGRFTISRDNAKNTVYLQMNSLKPEDTAVYYCAAEADESGSNYDYWGQGTQVTVSS	low polyreactivity
QVQLVESGGALVQAGGSLRLSCAASAITYRYYAMGWNRQAPGKERELVATITRSGGSTYYADSVKGRFTISRDNAKNTVYLQMNSLKPEDTAVYYCAKGLYSTRYYYWGQGTQVTVSS	high polyreactivity
QVQLVESVGGLVQAGGSLRLSCAASGFTFYTYAMGWYRQAPGKERELVAAINQRGGRTYYADSVKGRFTISRDNAKNTVYLQMNSLKPEDTAVYYCAKSPPPKTRYDYWGQGTQVTVSS	high polyreactivity
QVQLVESGGGLVQAGGSLRLSCAASGRTFFDYSMGWYRQAPGKERELVAAITGGDGSTYYADSVKGRFTISRDNAKNTVYIQMNSLKTEDTAVYYCAAENTRTYWYAAMDYWGQGTQVTVSS	low polyreactivity
QVQLVESGGGLVQSGGSLRLSCAASGIIFSRNAMGWYRQAPGKERELVAGITSSGGTTYYADSVKGRFTISRDNAKNTVYLQMNSLKPEDTAVYYCAAYSTQNYSYRRYYYWGQGTQVTVSS	high polyreactivity
QFQLVESGGGLVQAGGSLRLSCAASGLIFVGNPMGWYRQAPGKERELVAAISSRGGRTYYADSVKGRFTISRDNAKNTVYLQMNSLKPEDTAVYYCIAANSQWGFEYWGQGTQVTVSS	high polyreactivity
QVQLQESGDGLVQAGGSLRLSSAASGTIFSDYGMGGYRQAPGKERELLAGISDGCNTNYTDSVKGRFTISRDNAHRVSADEQPETGGYRGVLLRGSERWLLFYVYWGQGTQVTVSS	high polyreactivity
QVQLVESGGGLVQAGGSLRLSCAASGPTFYRYAMGWYRQAPGKERELVAAISSSGGSTYYADSVKGRFTISRDNANNTVYLQMNSLKPEDTAVYYCATGYRYASYLCNYWGHGTQVTVSS	high polyreactivity
QVQLVESGGGLVQAGGSLRLTCAASGSTFYTYAMGWYRQAPGNERELVAALSYGGGITYYADSVKGRFTISRDNEKNTVYIQMNSLKPEDTAVYYCAAVNGWQRYEFWGQGTQVTVSS	high polyreactivity
QVQLVESGGGLVQAGGSLRLSCAASGFIFYRYAMGWYRQAPGKERELVAAISSSGGSTYYADSVKGRFTISRDNAKNTVYFQMNSLKPEDTAVYYCNKRPQQYRPGYDYWGQGTQVTVSS	high polyreactivity
QVQLVESGGGLVQAGGSLRLTCAASGRTFSYNAMGWYRQAPGKERELVAAISYDGGRTYYADSVKGRFTISRDNAKNSVYLQMNSLKPEDTAVYFCAAYPYRCPHPWTIGDYWGQGTQVTVSS	low polyreactivity
QVQLVESVGGLVQAGGSLRLSCAASGITSGTYAMGWYRQAPGKERELVAAISSSGGRTYYADSVKGRFTISRDNAKNTVYLQMNSLKPEDTAVYYCAARIRLSLRTGYDYWGQGTQVTVSS	high polyreactivity
QVKLEESGGGLVQAGGSLRLTCAASGSTFTYYAMGWYRQAPGKERELVAAITFRGDSTYYADSVKGRFTFSRDNAKNTVYLQMNSLKPEDTAVYYWGQGTQVTVSS	low polyreactivity
QVQIVVSGGGLVQAGGRRRLSCAASGRFFWVYAMGWYRQAPGKERELVAAISRSGGITSYADSVKGRYTISRDNANYTVYLQMNSLKPEDTAVYCCAARSYFDGFYYWGQGAQVTVSS	high polyreactivity
QVQLVESGGGLVQAGGSLRLSCAASGSTFSRYAMGWYRQAPGKERELVAAITRSGGGTHYADSVKGRFTISRDNAKNTVYLQMNSLKPEDTAVYYCNVAGVLYPFVSYDYWGQGTQVTVSS	low polyreactivity
